Assay [1] deals with Bacteroidetes bacterium GWA2_30_7 CuZn superoxide dismutase (BbCuZnSOD) (Bacteroidetes bacterium GWA2_30_7). As to the kind of experiment: SEC-MALS; size-exclusion chromatography coupled static light scattering (SEC-SLS), masses from refractive index; 20 mM Tris-HCl pH 7.4, 150 mM NaCl. For orientation: Size exclusion chromatography separates by hydrodynamic size, large species first.

Assay [2] addresses Rickettsiales bacterium TMED131 CuZn superoxide dismutase (RbCuZnSOD) (Rickettsiales bacterium TMED131). Described as above.

As usually defined, the stoichiometry N is a count of units in the complex or per binding partner. In turn, “Bacteroidetes bacterium GWA2_30_7 CuZn superoxide dismutase (BbCuZnSOD) (enzyme)” displayed a stoichiometry N in assay [1] of 2.
With “Rickettsiales bacterium TMED131 CuZn superoxide dismutase (RbCuZnSOD) (enzyme)”, the stoichiometry N in assay [2] came out at 2.
